Measurements from the supplement of paper PMC10567573.
± gives the standard deviation.

Experiment: protein stability index of a GFP-peptide fusion (GPS, HEK-293T) (PSI 1-6); higher = more stable
Conditions: c terminus: a fixed tail appended
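Note: 24-mer peptide tiles fused after GFP, lentivirally expressed, FACS-sorted into six equal bins by GFP/DsRed ratio, decoded by Illumina sequencing, PSI is the read-weighted mean bin number.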

| Sequence | protein stability index (treatment: DMSO) | protein stability index (treatment: MLN4924 1 uM, 8 h) |
| --- | --- | --- |
| VWYYCTLTIRESILINNGSRIKGW [TMEM120A] | 3.08 ± 0.61 | 2.96 ± 0.36 |
| HSLERAGSKQYSAAIAFTLALFSH [SMG5] | 2.48 ± 0.41 | 2.49 ± 0.44 |
| PTPSSPLPSVPVSVPASDPRSCSS [PLEKHN1] | 5.15 ± 0.2 | 5.14 ± 0.26 |
| KGTILKASVDYIRKLQKEQQRSKD [TFE3] | 3.41 ± 0.19 | 3.79 ± 0.38 |
| DSSMILTVPGQALACGSNRFNKLG [NEK8] | 3.29 ± 0.17 | 3.2 ± 0.22 |
| EPVTLETPAFMFRLDASTSHQNLR [FSD1] | 3.6 ± 0.35 | 3.83 ± 0.2 |
| EVSLDSLDLRVKGILSSQAEGLAN [EHMT1] | 4.18 ± 0.19 | 4.05 ± 0.42 |
| SAPPITPECRQVLKTSRKDVKDKE [CHGB] | 5.26 ± 0.25 | 5.41 ± 0.22 |
| RFNKLGLDHLSLGEEPVPHQQVEE [NEK8] | 4.91 ± 0.22 | 4.89 ± 0.26 |
| EMAATPAGFAQLTHLLMGLAGGKL [HDAC6] | 2.26 ± 0.39 | 2.39 ± 0.22 |
| PENILLDRDGHIKLTDFGFAKKLV [PRKX] | 2.9 ± 0.17 | 3.08 ± 0.072 |
| VLGTKVDAERDGVKVPTTLAEYCV [CDC34] | 4.073 ± 0.014 | 4.07 ± 0.12 |
| FKKQIWLLFEYPESSSPARGIAIV [KCNA4] | 2.74 ± 0.17 | 2.42 ± 0.3 |
| INSIIHNPRAPVIIYKQTKGGVQN [CEP70] | 2.86 ± 0.43 | 3.34 ± 0.51 |
| ATSLFVELDEEEVKAATTEPTEVE [BCL2L13] | 5.48 ± 0.4 | 5.62 ± 0.12 |
| EGFADGFVKALDDLHKMNHVTPPN [JUNB] | 4.12 ± 0.22 | 4.17 ± 0.3 |
| LPHLQDSFVDKLLDLMPRLMTSKP [INTS4] | 2.16 ± 0.2 | 2.15 ± 0.24 |

| Sequence | protein stability index (treatment: DMSO) | protein stability index (treatment: MLN4924 1 uM, 8 h) |
| --- | --- | --- |
| AGYRLGPAQPGADSSFPPALAEGY [TBX6] | 3.45 ± 0.38 | 3.62 ± 0.23 |
| DGGLLSGNEKITMQNLNDRLASYL [KRT15] | 3.12 ± 0.16 | 3.09 ± 0.2 |
| NSFRLLFDVVVILTCSLSFLLCAR [MCOLN1] | 3.21 ± 0.17 | 3.24 ± 0.24 |
| GADNIDVSHPIIYRGAVYADNMEF [FEM1B] | 3.11 ± 0.17 | 3.21 ± 0.48 |
| AKGASLFTCDLQHTETGEEVLRMC [VPS39] | 3.69 ± 0.055 | 3.73 ± 0.33 |
| REQLQAEASERFAAGYIQCMHEVH [HES6] | 3.62 ± 0.37 | 3.77 ± 0.22 |
| SCQEVLRKGCLRFQLPERGSRLCL [DFFB] | 2.27 ± 0.48 | 2.4 ± 0.29 |
| KKLHKIQNKAQRQKDLIMKVENLT [TAF7L] | 3.23 ± 0.17 | 3.37 ± 0.12 |
| EASRLNIERMKQIYQQLSRYRGLG [CRY1] | 2.48 ± 0.26 | 2.37 ± 0.3 |
| LEEKCQQPASELLQDVRVNQSRCE [TRIM15] | 5.58 ± 0.22 | 5.53 ± 0.5 |
| DSSIIRTTQDLFAINRDTAFPGAS [RHOBTB3] | 3.91 ± 0.23 | 3.94 ± 0.23 |
| KSKLTYMCRVDLRGHMPEWYTKSF [DLC1] | 2.68 ± 0.65 | 2.43 ± 0.29 |
| VSPGSPPPPLPNHKYNTTSTSYSP [PLAGL1] | 4.27 ± 0.15 | 4.21 ± 0.27 |
| NGLNARMMHGGSYSLTTSSTHKRS [RAB40B] | 4.28 ± 0.12 | 4.34 ± 0.19 |
| GEIETIARFGSGPCKTRDDEPVCG [APMAP] | 4.66 ± 0.47 | 5.13 ± 0.27 |
| KILISGLEPSTPYRFLLYGLHEGK [TNXB] | 2.75 ± 0.77 | 3.54 ± 2.4 |
